Assay results: article PMC7021315

Experiments:
[1] = target: recombinant Zika virus E protein (soluble E, lacking the stem-anchor region) (Zika virus); assay: rate zonal ultracentrifugation in sucrose gradients; 3-5 ug E protein on sucrose gradients, 20 h at 38,000 rpm, 15°C, Beckman SW40 rotor; fractions quantified by ELISA (Strep-Tactin capture, mab A1 detection)
[2] = target: recombinant Zika virus E protein (soluble E, lacking the stem-anchor region) (Zika virus); assay: SEC; Superdex 200 Increase 3.2/300 column, ÄKTA FPLC, TAN buffer pH 8.0

recombinant Zika virus E protein (soluble E, lacking the stem-anchor region) (domain or fragment)
stoichiometry N [1]: 2 | stoichiometry N [2]: 2
